Bounds are passed on as bounds.

For assay [1], the target named is HLA-B*58:01. The assay can be described thus: IEDB peptide-MHC binding, purified MHC/competitive/fluorescence; filed as Kd, often an IC50 or EC50 that approximates it; ≥ and ≤ were set here for values at or beyond the usual limits of such assays.
Another assay has as its target HLA-B*83:01. Described as above. The conditions noted are these: source organism: Brucella canis ATCC 23365.
For another assay, the target named is HLA-B*15:42. The assay is described as above. The conditions noted are these: source organism: Brucella canis ATCC 23365.
The target in a further assay is HLA-B*40:01. The assay is described as above.
Another assay deals with HLA-A*30:01. The assay is described as above.
A further assay deals with HLA-A*24:03. Described as above. The conditions noted are these: source organism: Brucella canis ATCC 23365.
The target in assay [2] is HLA-A*30:02. The assay is described as above.
The target of another assay is HLA-A*68:23. Described as above. The conditions noted are these: source organism: Brucella canis ATCC 23365.
In a further assay the target is HLA-B*44:02. Described as above.
The next assay concerns the target HLA-B*45:06. The description is as above. Conditions: source organism: Brucella canis ATCC 23365.
The target of the next assay is HLA-A*11:01. The assay is described as above.
The target in the next assay is HLA-A*23:01. The description is as above.
The target in a further assay is HLA-B*39:01. Described as above. The conditions noted are these: source organism: Brucella canis ATCC 23365.
For the next assay, the target named is HLA-B*14:02. The description is as above.
A further assay concerns the target HLA-B*07:02. The assay is described as above.
Another assay has as its target HLA-A*01:01. The assay is described as above.
In the next assay the target is HLA-B*08:01. The assay is described as above.
The next assay deals with HLA-B*53:01. The assay is described as above.
The target of assay [3] is HLA-A*66:01. The assay can be described thus: IEDB peptide-MHC binding, purified MHC/direct/fluorescence; filed as Kd, often an IC50 or EC50 that approximates it; ≥ and ≤ were set here for values at or beyond the usual limits of such assays. Conditions: source organism: Brucella suis 1330.
The target in a further assay is HLA-B*18:01. The description is as above. Conditions: source organism: Brucella suis 1330.
The target in another assay is HLA-A*68:02. The description is as above. Conditions: source organism: Brucella suis 1330.
The target in a further assay is HLA-A*29:02. The assay is described as above. The conditions noted are these: source organism: Brucella suis 1330.
Another assay has as its target HLA-A*03:01. The assay is described as above. Conditions: source organism: Brucella suis 1330.
A further assay addresses HLA-B*27:03. Described as above. The conditions noted are these: source organism: Brucella suis 1330.
The target of the next assay is HLA-B*51:01. Described as above. The conditions noted are these: source organism: Brucella suis 1330.
The next assay has as its target HLA-B*57:01. The description is as above. Conditions: source organism: Brucella suis 1330.
Assay [4] concerns the target HLA-B*15:01. Described as above. The conditions noted are these: source organism: Brucella suis 1330.
The next assay concerns the target HLA-B*46:01. Described as above. The conditions noted are these: source organism: Brucella suis 1330.
Assay [5] addresses HLA-A*66:01. Put plainly: IEDB peptide-MHC binding, purified MHC/competitive/fluorescence; filed as Kd, often an IC50 or EC50 that approximates it; ≥ and ≤ were set here for values at or beyond the usual limits of such assays. The conditions noted are these: source organism: Escherichia coli 536.
The next assay deals with HLA-B*27:05. Described as above. The conditions noted are these: source organism: Escherichia coli 536.
In assay [6] the target is HLA-B*15:01. Described as above. Conditions: source organism: Escherichia coli 536.
Assay [7] addresses HLA-B*58:01. Put plainly: IEDB peptide-MHC binding, purified MHC/competitive/radioactivity; filed as Kd, often an IC50 or EC50 that approximates it; ≥ and ≤ were set here for values at or beyond the usual limits of such assays. Conditions: source organism: Dengue virus 1 Brazil/97-11/1997.
In assay [8] the target is HLA-A*30:02. Described as above. The conditions noted are these: source organism: Dengue virus 1 Brazil/97-11/1997.
The target of the next assay is HLA-A*80:01. Put plainly: IEDB peptide-MHC binding, purified MHC/direct/fluorescence; filed as Kd, often an IC50 or EC50 that approximates it; ≥ and ≤ were set here for values at or beyond the usual limits of such assays. The conditions noted are these: source organism: Dengue virus 1 Singapore/S275/1990.
The mark [9] stands for this setting: source organism: Brucella canis ATCC 23365.
Setting [10] is: source organism: Escherichia coli 536.

Usually Kd stands for the constant that tells how readily two partners part at equilibrium. Regarding ETVWPFFYA, the Kd with HLA-B*58:01 [1] (setting [9]), with HLA-B*83:01, with HLA-B*15:42, in the assay with HLA-B*40:01 (setting [9]), in the assay with HLA-A*30:01 (setting [9]) and in the assay with HLA-A*24:03 was ≥ 5 µM throughout. Also, the Kd with HLA-A*30:02 [2] (setting [9]) is ≥ 5 µM; in the assay with HLA-A*68:23, 0.0013 µM; with HLA-B*44:02 (setting [9]) it was ≥ 5 µM; with HLA-B*45:06 it was ≥ 5 µM; with HLA-A*11:01 (setting [9]), ≥ 5 µM; with HLA-A*23:01 (setting [9]), ≥ 5 µM. Further, the Kd in the assay with HLA-B*39:01, with HLA-B*14:02 (setting [9]), in the assay with HLA-B*07:02 (setting [9]), with HLA-A*01:01 (setting [9]), in the assay with HLA-B*08:01 (setting [9]) and in the assay with HLA-B*53:01 (setting [9]) was ≥ 5 µM throughout. Further, the Kd was 0.101 µM with HLA-A*66:01 [3]; ≥ 20 µM with HLA-B*18:01; ≤ 0.001 µM with HLA-A*68:02; ≥ 20 µM with HLA-A*29:02; ≥ 20 µM with HLA-A*03:01; ≥ 20 µM with HLA-B*27:03. For the same sequence, the Kd with HLA-B*51:01, with HLA-B*57:01, with HLA-B*15:01 [4] and with HLA-B*46:01 was ≥ 20 µM throughout.

Regarding YQAENSTAE, the Kd in the assay with HLA-B*58:01 [1] (setting [10]), with HLA-B*40:01 (setting [10]), in the assay with HLA-A*30:01 (setting [10]), with HLA-A*66:01 [5], with HLA-A*30:02 [2] (setting [10]) and with HLA-B*44:02 (setting [10]) was ≥ 5 µM in each case. Further, the Kd with HLA-A*11:01 (setting [10]), in the assay with HLA-B*27:05, with HLA-A*23:01 (setting [10]), with HLA-B*14:02 (setting [10]), in the assay with HLA-B*07:02 (setting [10]) and in the assay with HLA-A*01:01 (setting [10]) was ≥ 5 µM each time. Besides, the Kd in the assay with HLA-B*08:01 (setting [10]), in the assay with HLA-B*53:01 (setting [10]) and with HLA-B*15:01 [6] was ≥ 5 µM in each case.

For KSAAIDGEY, the Kd in the assay with HLA-B*58:01 [7] amounted to 0.00658 µM; with HLA-A*30:02 [8], 0.703 µM; with HLA-A*80:01 it was 0.0441 µM.

These data come from the Immune Epitope Database (IEDB).
